In US20190177416A1 (NANOMAB TECHNOLOGY, published 2019):

Tests used:
[1] = biological target: T1, human PD-L1 protein (coated antigen) (human, UniProt Q9NZQ7 19-238, limits assumed); assay: ELISA, purified nanobody 10 ug/mL, coated PD-L1 against coated PD-L2
T1 construct: Construct not described; also called PD-L1 antigen; antigenic protein PD-L1
Procedure: (§1) (1) Coated antigenic proteins PD-L1 and PD-L2: 0.5 μg per well (5 μg/mL, 100 μL), packaged NaHCO₃ (100 mM, pH8.2) was used as a blank control and overnight at 4° C. (2) Wash the cells three times with PBST the next day, add 200 μL of 1% BSA to block at room temperature for 2 hours. (3) Each purified nanobody was diluted to 10 μg/mL, and 100 pt of each of the purified nanobodies was incubated with the coated PD-L1, PD-L2 and the blank control group, and reacted at room temperature for 1 hour. (4) Unbound antibody was washed away with PBST, and 100 μL of mouse anti-HA tag antibody (1:2000 dilution) was added and placed at room temperature for 1 hour. (5) Unbound antibody was washed away with PBST, and anti-mouse alkaline phosphatase conjugate (1:2000 dilution) was added and placed at room temperature for 1 hour. (6) Wash the unbound antibody with PBST, add alkaline phosphatase coloring solution, and read the absorbance at 405 nm on an ELISA apparatus. The specificity of the nanobody was judged based on the absorption value.

[2] = biological target: T2, PD-L2 (coated antigenic protein) (UniProt Q9BQ51 20-220, limits assumed); assay: ELISA, purified nanobody 10 ug/mL on coated PD-L2, anti-HA detection
T2 sequence (looked up): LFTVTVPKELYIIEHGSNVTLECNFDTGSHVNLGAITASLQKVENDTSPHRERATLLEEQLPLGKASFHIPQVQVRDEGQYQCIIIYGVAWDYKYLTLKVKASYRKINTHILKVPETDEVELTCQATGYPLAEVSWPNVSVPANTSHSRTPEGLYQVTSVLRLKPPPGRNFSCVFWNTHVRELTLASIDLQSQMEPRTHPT
Procedure: as §1

[3] = biological target: T1, human PD-L1 protein (coated antigen); assay: PE-ELISA, crude extract on coated PD-L1
Method in brief: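 Phage clones were expressed with 1 mmol IPTG at 28° C overnight, and crude periplasmic antibody was applied to PD-L1-coated plates for 1 h at room temperature. Detection used anti-HA, then an alkaline phosphatase conjugate, read at 405 nm. A sample/control OD ratio above 3 marked a positive clone.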

[4] = biological target: T3, PD-L1 on 293F cells transiently transfected with the PD-L1 full-length gene (UniProt Q9NZQ7 19-290, limits assumed); assay: flow cytometry, 293F cells transiently transfected with PD-L1 or PD-L2
T3 construct: whole, on cells; also called PD-L1 transient cells
T3 sequence (Q9NZQ7 19-290 limits assumed): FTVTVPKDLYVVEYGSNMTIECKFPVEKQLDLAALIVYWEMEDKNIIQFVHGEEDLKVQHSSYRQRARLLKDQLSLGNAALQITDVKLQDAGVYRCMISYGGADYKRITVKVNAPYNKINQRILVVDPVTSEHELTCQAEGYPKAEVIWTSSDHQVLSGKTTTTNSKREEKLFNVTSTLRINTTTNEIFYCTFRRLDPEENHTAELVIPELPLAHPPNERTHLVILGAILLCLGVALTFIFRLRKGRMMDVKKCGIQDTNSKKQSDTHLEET
Procedure: In addition, the specificity of the PD-L1 nanobody was detected by flow cytometry. The PD-L1 full-length gene and the PD-L2 full-length gene were transiently transfected in a conventional 293F cell, and a nano-antibody (SEQ ID NO.: 1) of PD-L1 was selected for incubation for flow cytometry.

[5] = biological target: T1, human PD-L1 protein (coated antigen); assay: ELISA, purified nanobody 10 ug/mL on coated PD-L1, anti-HA detection
Procedure: as §1

[6] = biological target: T1, human PD-L1 protein (coated antigen); assay: PE-ELISA on coated PD-L1

T1 sequence (Q9NZQ7 19-238 limits assumed): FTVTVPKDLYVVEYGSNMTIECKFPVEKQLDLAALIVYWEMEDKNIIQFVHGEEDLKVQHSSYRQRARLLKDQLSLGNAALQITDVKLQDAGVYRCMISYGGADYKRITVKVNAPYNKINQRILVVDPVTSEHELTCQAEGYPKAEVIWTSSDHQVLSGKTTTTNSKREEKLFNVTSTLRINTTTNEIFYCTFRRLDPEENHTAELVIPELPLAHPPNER

OD ratio (PD-L1/PD-L2) [1] | ELISA absorbance (A405 nm) [2] [A405 nm] | OD ratio (experimental group (A405 nm)/control group (A405 nm)) [3] | fold difference (PD-L1 transient cells against PD-L2 transient cells) [4] [times] | ELISA absorbance (A405 nm) [5] [A405 nm] | binding result [6] | Binder
32.2 | 0.118 | > 20 | ≥ 550 | 3.8 |  | SEQ ID NO 1 (VHH, pMECS-expressed; also called anti-PD-L1 nanobody No. 1; VHH numbered 1) VHH: QVQLQESGGGSVQTGGSLRLSCTASTSIYSNNYMAWFSQSPGKGREGVAAVYMDDGRPYYADSVKGRFTISLDSAKNTMYLQMNSLKPEDTAMYYCAAAPGPLSRNYWYTSANYDYWGQGTQVTVSS
 |  |  |  |  | binds | SEQ ID NO 150 (VHH, pMECS-expressed; also called VHH numbered 150) VHH: QVQLQESGGGLVQPGGSLRLSCAASGFTFSAYGMSWVRQAPGKGFEWVSTINSGGGTTFYADSVKGRFTISRDNAKNTLYLQLNSLRTEDTAMYYCRRCADIYCSLSGGWTGQGTQVTVSS
